Results published in publication PMC3871271 (FEBS Open Bio, 2013).
Read-outs that look alike come from different tables or passages of the source.

Legend:
Experiment in all cases: ITC
[1] = target: T1, C-terminal domain of Scherffelia dubia centrin, wild type (Scherffelia dubia, UniProt Q06827 93-168)
T1 sequence (looked up): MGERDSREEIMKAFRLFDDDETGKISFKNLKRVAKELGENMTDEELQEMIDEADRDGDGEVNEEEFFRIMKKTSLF

[2] = target: T1, C-terminal domain of Scherffelia dubia …; remark: listed apart in the source
[3] = target: T1, C-terminal domain of Scherffelia dubia …; remark: listed apart in the source
[4] = target: T1, C-terminal domain of Scherffelia dubia …; remark: listed apart in the source

## Ac-NWKLLAKGLLIRERLKR-NH2 [P17-XPC peptide]
[1]
  Ka: 7.32e+07 M⁻¹
  dH: -23.4 kcal/mol
[2]
  Ka: 3.02e+07 M⁻¹
  dH: -33.8 kcal/mol
[3]
  dH: -40.6 kcal/mol
[4]
  Ka: 5.94e+07 M⁻¹
  dH: -23.4 kcal/mol
